The test has as its target T1, Syk/BTM116 (LexA-Syk bait) (E. coli, UniProt P48025 1-629).
T1 construct: also called pLexA-Syk; not shown: E. coli LexA domain of vector pBTM116
In words: yeast two-hybrid (L40), β-galactosidase assay; FIG. 2B row 2, empty pVP16 control.

T1 sequence (P48025 whole entry, the tested form may be a part): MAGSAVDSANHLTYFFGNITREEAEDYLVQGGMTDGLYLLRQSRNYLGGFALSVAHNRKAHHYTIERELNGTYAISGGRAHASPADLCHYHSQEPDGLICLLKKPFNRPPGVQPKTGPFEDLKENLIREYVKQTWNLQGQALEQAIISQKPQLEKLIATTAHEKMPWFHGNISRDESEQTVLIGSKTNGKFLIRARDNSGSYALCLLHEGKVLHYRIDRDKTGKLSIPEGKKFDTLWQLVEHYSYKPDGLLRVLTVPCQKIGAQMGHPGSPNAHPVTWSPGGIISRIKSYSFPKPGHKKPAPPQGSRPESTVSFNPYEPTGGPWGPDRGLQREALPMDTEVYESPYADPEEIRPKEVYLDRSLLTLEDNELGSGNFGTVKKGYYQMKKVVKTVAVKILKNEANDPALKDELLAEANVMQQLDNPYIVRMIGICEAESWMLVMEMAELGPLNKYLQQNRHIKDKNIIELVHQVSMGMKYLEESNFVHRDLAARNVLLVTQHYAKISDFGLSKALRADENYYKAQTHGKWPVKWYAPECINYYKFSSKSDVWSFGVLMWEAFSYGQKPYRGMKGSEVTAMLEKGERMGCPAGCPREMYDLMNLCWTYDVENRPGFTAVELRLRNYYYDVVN

B1: VP16 vector alone (pVP16, no scFv insert) (other)
chain: STAPPTDVSLGDELHLDGEDVAMAHADALDDFDLDMLGDGDSPGPGFTPHDSAPYGALDMADFEFEQMFTDALGIDEYGG
notes: also called empty pVP16 vector
Consider B1, for which the binding result was “no binding”.

The values above are taken from patent US7569390 (MEDICAL RESEARCH COUNCIL, dated 2009).
